Source: the supplement of paper PMC10724198
± gives the standard deviation of the averaged measurements.

test system: Saccharomyces cerevisiae; assay: protein stability index of tFT-peptide fusion (C-terminal peptide) (PSI (0-1 scale)); higher = more stable (slower turnover); conditions: genetic background: wild type; temperature: 30 C
Description: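 Multiplexed protein stability (MPS) profiling in S. cerevisiae. Random 12-aa peptides (tFT-X12 library) are fused to the C-terminus of a sfGFP-mCherry tandem fluorescent timer, after mCherry and a GGGS linker. Cells are FACS-sorted into 8 mCherry/sfGFP bins and deep-sequenced. The protein stability index (PSI) is the read-weighted bin average, scaled from 0 (unstable) to 1 (stable). Only peptides with >10 reads are reported; cells were grown at 30 °C in SC-His with glucose.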
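Note: PSI is a weighted mean of sequencing reads over stability bins, variants kept only with over 10 reads, mCherry proximal and sfGFP distal, peptide attached via GGGS linker.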

Sequence | protein stability index
LLHRALLFPAVM | 0.734 ± 0.017
TRMRWCGSGVKN | 0.809 ± 0.067
WRSIQLVHDKRR | 0.6808 ± 0.0056
KTKKNKITFKNK | 0.759 ± 0.02
MCLTPLWYPSSA | 0.709 ± 0.03
LTGSGSGQGSRN | 0.688 ± 0.0097
ALGRWAVSCNRG | 0.71 ± 0.11
IVENSLEEKERR | 0.673 ± 0.056
HQYLGMCLDRPV | 0.6455 ± 0.0054
DYRLWFRGLPSL | 0.697 ± 0.035
RESRGAGGGEGG | 0.667 ± 0.033
RKTQKIEQKQKE | 0.756 ± 0.076
VSARRTLRFSFE | 0.685 ± 0.016
RPPPPLPQAPPT | 0.679 ± 0.0082
TAPSGIYFSLPL | 0.66 ± 0.054
FGQSKFAMKGVR | 0.708 ± 0.0086
ESLVSFTRPFSR | 0.748 ± 0.026
LTVGPCQPAGEA | 0.776 ± 0.065
SCFLAFSFLCLF | 0.5 ± 0.0096
SVCLLKSWHERQ | 0.725 ± 0.033
NYIIRKTKERHK | 0.781 ± 0.11
VCVAACVGAHFA | 0.656 ± 0.083
PPPPPLPLPLPS | 0.728 ± 0.066
PPPPSVCPRFPI | 0.785 ± 0.12
SRPRPSPSPFIA | 0.708 ± 0.045

Sequence | protein stability index
KYHIKKPSTLEI | 0.683 ± 0.01
VPFRLFSSYLSG | 0.641 ± 0.037
TASAGLVAAATI | 0.668 ± 0.034
FSCPALCSCLAV | 0.604 ± 0.087
EDCTKNPERDNS | 0.68 ± 0.048
VVLGESSGGVGV | 0.643 ± 0.097
VLVEWQTCRTRK | 0.656 ± 0.097
GREEKQGAENRT | 0.65 ± 0.018
CAGRVWVGLCGV | 0.685 ± 0.094
EWSGWVGKCGRG | 0.6644 ± 0.0059
GGCSDKVVRGGV | 0.695 ± 0.014
RCPRSPPQPLWT | 0.731 ± 0.03
PVFLSCCLCLLS | 0.78 ± 0.099
GWGGAGGGGGRV | 0.652 ± 0.1
PARFPPLPFPPI | 0.74 ± 0.035
FVSFTAVALFFG | 0.567 ± 0.035
LGPFSVPCDPHF | 0.696 ± 0.04
SPDGVEILPIRG | 0.684 ± 0.017
PPPHPPPRLPSP | 0.604 ± 0.078
GMRGGGGWCRGW | 0.671 ± 0.043
PKKGKKKLREKS | 0.728 ± 0.051
SRLRFSIAPSIF | 0.685 ± 0.022
STNIDQKKKEEK | 0.7 ± 0.03
LRLSASRLLPPP | 0.736 ± 0.015
LEWGRGFGLWGG | 0.7823 ± 0.004

Sequence | protein stability index
TVPNLTPALPPL | 0.525 ± 0.11
TKEEDKNEGRRR | 0.662 ± 0.055
FRFNPGSCSRPV | 0.681 ± 0.016
ASPAIDSETSEY | 0.686 ± 0.16
DFSLQILALCYF | 0.558 ± 0.018
LPPCGQIVSLDT | 0.68 ± 0.022
GVVMLSDDGSAW | 0.718 ± 0.026
DRVRGLCIPNGP | 0.681 ± 0.043
SGGVLSNGRLAA | 0.684 ± 0.052
PPPNPPPALPPL | 0.664 ± 0.047
PTTPPTILLLPL | 0.658 ± 0.031
RSRLPPPPLLFP | 0.702 ± 0.048
CPPVRLSLPPSL | 0.68 ± 0.019
FCVFSDVSRFSY | 0.701 ± 0.082
TEYRRRPNETAM | 0.705 ± 0.037
FLRLSPQFASFP | 0.677 ± 0.083
IILDRQNRDLKY | 0.634 ± 0.084
VDDIIGIRKRNT | 0.691 ± 0.07
SYVLIYAPLSSL | 0.661 ± 0.036
LYNFLFLLPYSL | 0.647 ± 0.13
LPIARLPPPPPR | 0.707 ± 0.1
SSLSPPPPLPPW | 0.706 ± 0.075
DYNQWSAHHYGV | 0.693 ± 0.029
PPPLPPPLPPPL | 0.705 ± 0.05
AYQFLCFSGMIT | 0.761 ± 0.27

Sequence | protein stability index
RPPPGTPPGWSP | 0.73 ± 0.028
SPSVRSPFSLPP | 0.7383 ± 0.0052
PPLPPAPPPPPH | 0.697 ± 0.056
PPTLPPPRTLPL | 0.6984 ± 0.0052
PRPPNPRPPPPP | 0.729 ± 0.071
DKCRWWRHGVWR | 0.687 ± 0.019
FPPLLASPPPSP | 0.705 ± 0.011
PLQEHYRQIFPD | 0.71 ± 0.0044
PHLPSSPSPYSP | 0.689 ± 0.0043
KKKKNKLRNKQE | 0.656 ± 0.015
LLSSSLPVCLWS | 0.733 ± 0.048
VEWLGWFGISNK | 0.76 ± 0.017
LRREQIKEAKHR | 0.66 ± 0.017
VVSDGARLVWGG | 0.754 ± 0.12
YLGTTHTGTSHR | 0.701 ± 0.019
RKKIKRKNNKEK | 0.685 ± 0.052
VIFCFCSRSCFL | 0.643 ± 0.037
LGARELTFALLR | 0.649 ± 0.0039
PLRRPPRLPAPP | 0.7 ± 0.11
PLPPPPARLPSP | 0.703 ± 0.017
LAGVEMWVGLEV | 0.61 ± 0.059
RIERIYEIKKNR | 0.68086 ± 7.2e-05
GVAISSGNHINH | 0.654 ± 0.12
SPLTCKSLRAQR | 0.738 ± 0.022
VKWAIWGGMEWR | 0.667 ± 0.07

Sequence | protein stability index
GSFPPPARARLS | 0.677 ± 0.025
VHGGKREGGGEG | 0.667 ± 0.039
VCRGAIPIERFR | 0.715 ± 0.15
PPSVILTSASSR | 0.721 ± 0.011
FSPPSPPHPSPL | 0.741 ± 0.023
DTTSSPPLPLLV | 0.623 ± 0.035
RRAAVGGCLGGW | 0.726 ± 0.017
PPPFPSPLPPPP | 0.678 ± 0.0097
SSFPPPPAAPPP | 0.667 ± 0.041
MERAGTADGGGA | 0.662 ± 0.016
ADVWSCAFCFDC | 0.595 ± 0.033
QDERPLAPRTRW | 0.7251 ± 0.0032
SKGQLRLNMCIL | 0.662 ± 0.046
FYCSWGGNDVDN | 0.692 ± 0.075
RLAVGMIRPQGE | 0.637 ± 0.024
GSRSGPARTTGR | 0.668 ± 0.024
WCWTYLRFSVEL | 0.677 ± 0.055
SLVSTSRALFAQ | 0.659 ± 0.019
VVRRHKRVLMRF | 0.659 ± 0.015
PPPQTRPPTPTP | 0.741 ± 0.081
SACVEQVHLRWF | 0.642 ± 0.092
AYLCLLPPFFTV | 0.674 ± 0.037
REKQRYEERLRE | 0.636 ± 0.018
PHASLAPPLPPP | 0.5801 ± 0.0042
SAGAPRMPARGG | 0.691 ± 0.071

Sequence | protein stability index
WSDGGRGGGWGK | 0.656 ± 0.015
SAVGRTYGVIII | 0.673 ± 0.029
QQDHRSHAHRRL | 0.7047 ± 0.0013
SLLPHAHAPSPL | 0.673 ± 0.014
VTGPLSSDSSFT | 0.672 ± 0.017
PLSPLSLSPVAP | 0.62 ± 0.026
KHSTTSRCVWYT | 0.627 ± 0.13
KKEGIWEGERVG | 0.724 ± 0.011
RCPLSFLRCSMA | 0.586 ± 0.018
PRPPPRRPDFGL | 0.825 ± 0.16
PPHGRKRRGKEP | 0.776 ± 0.16
WNRVPEWTREPL | 0.719 ± 0.022
HGSRGGIINEEG | 0.642 ± 0.082
WWGFGRVCGGGV | 0.774 ± 0.092
TPLVLTLLTRRP | 0.709 ± 0.054
GGGVEAIEVSQG | 0.678 ± 0.041
SPSPSSLPPPLR | 0.726 ± 0.052
SPSRPQPPPLSA | 0.738 ± 0.061
FGIRGMTSVGSP | 0.675 ± 0.088
PPPPPPPPPSSP | 0.701 ± 0.057
WHGSVPHLWFPP | 0.59 ± 0.026
KVRAGLGIRITQ | 0.674 ± 0.021
DFLRCPPLFEFS | 0.721 ± 0.087
WSRPVTFRIGLW | 0.653 ± 0.017
PPRRSSLSPPLA | 0.6562 ± 0.0027

Sequence | protein stability index
PLPPPPRLPPRH | 0.677 ± 0.04
RVMELEGRSKLK | 0.633 ± 0.026
PLPPPLPPPGPH | 0.731 ± 0.053
SSPSSLPAPPSA | 0.666 ± 0.039
PPSPPPPTGLCL | 0.745 ± 0.078
GRPGPSSPFLLP | 0.702 ± 0.052
QGSKQKIISAAT | 0.6807 ± 0.0064
FMHCLLAQFAGL | 0.705 ± 0.11
ACVSWLPVPRQS | 0.6964 ± 0.0062
VAWCYCSGDTGV | 0.7 ± 0.035
AACNGGPMNQTR | 0.7 ± 0.086
RRTKKERQKSWK | 0.649 ± 0.038
IAKKNKTSKNRK | 0.703 ± 0.025
VCRCYILSFPQR | 0.688 ± 0.028
PPPSPPSGALTP | 0.763 ± 0.053
GSSPVWRVAGAG | 0.721 ± 0.061
QLENQRGWDRKI | 0.656 ± 0.038
YWGEGGCREGGE | 0.664 ± 0.056
GSWRSFHVWYNS | 0.571 ± 0.042
ILLSETEMIDAD | 0.683 ± 0.022
KRAPEPPTPPAP | 0.672 ± 0.015
LSLLKPLALCES | 0.559 ± 0.032
LLPLVLHQAFSP | 0.729 ± 0.073
RGQDGSEGRGPA | 0.653 ± 0.02
AIQNSNLNTKVR | 0.675 ± 0.033

Sequence | protein stability index
SKKTSRSKVHTS | 0.685 ± 0.069
RSTQRWAVAWSG | 0.678 ± 0.09
VLLRHRPKYACR | 0.645 ± 0.022
LCLDNFSSSWPI | 0.719 ± 0.02
ASVTSKSNCSGI | 0.663 ± 0.037
FGTATPPPTLPP | 0.727 ± 0.02
RGYVGVTQVCKN | 0.695 ± 0.043
SHRRLPPSRFYR | 0.7 ± 0.081
SRHGRTTKDFLQ | 0.682 ± 0.014
PPPAPPSPLLSR | 0.685 ± 0.1
GKGEERGVATRT | 0.657 ± 0.0076
PPPHPTPPLTSP | 0.702 ± 0.058
RNGALSVVCDYV | 0.698 ± 0.15
LLPPSPSSRPLF | 0.723 ± 0.02
LPLHAPPPHRHP | 0.683 ± 0.013
RTHPPADAWYLS | 0.698 ± 0.035
PFLTSPPPLPLH | 0.632 ± 0.031
LADFMFCALPLC | 0.658 ± 0.045
CFSSLRFCLPSV | 0.686 ± 0.00021
KPKHNKKILEKK | 0.671 ± 0.037
SFSSLVLSSCFW | 0.706 ± 0.026
